{
  "source": "patent US20250213710A1",
  "about": "(PHENOMIC AI, published 2025)",
  "key": {"[1]": {"molecular_target": "integrin β1 on ovarian cancer cells (SKOV3) (human) (UniProt P05556)", "sequence (P05556 21-798)": "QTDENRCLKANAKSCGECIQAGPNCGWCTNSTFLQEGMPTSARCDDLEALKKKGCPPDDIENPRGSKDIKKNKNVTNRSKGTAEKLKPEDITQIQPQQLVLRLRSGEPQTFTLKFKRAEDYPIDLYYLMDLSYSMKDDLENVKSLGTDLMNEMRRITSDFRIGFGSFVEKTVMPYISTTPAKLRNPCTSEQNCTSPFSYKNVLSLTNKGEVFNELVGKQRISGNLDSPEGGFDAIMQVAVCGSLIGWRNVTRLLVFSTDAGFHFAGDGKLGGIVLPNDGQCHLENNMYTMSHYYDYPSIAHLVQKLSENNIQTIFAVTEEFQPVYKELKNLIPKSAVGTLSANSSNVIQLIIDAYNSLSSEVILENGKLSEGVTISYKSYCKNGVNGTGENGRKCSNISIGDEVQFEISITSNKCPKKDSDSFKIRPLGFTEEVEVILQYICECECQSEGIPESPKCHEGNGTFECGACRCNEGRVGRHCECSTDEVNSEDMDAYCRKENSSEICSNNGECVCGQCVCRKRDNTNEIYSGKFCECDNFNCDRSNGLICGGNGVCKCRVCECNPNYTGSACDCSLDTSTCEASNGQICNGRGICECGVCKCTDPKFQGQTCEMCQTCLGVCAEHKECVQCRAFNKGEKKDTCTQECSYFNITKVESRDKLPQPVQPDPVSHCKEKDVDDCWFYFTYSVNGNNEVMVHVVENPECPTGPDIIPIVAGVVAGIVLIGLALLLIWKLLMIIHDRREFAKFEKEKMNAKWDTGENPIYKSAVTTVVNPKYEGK", "assay": "cell-based or functional assay"}, "[2]": {"molecular_target": "integrin αV on ovarian cancer cells (SKOV3) (human) (UniProt P06756)", "sequence (P06756 31-1048)": "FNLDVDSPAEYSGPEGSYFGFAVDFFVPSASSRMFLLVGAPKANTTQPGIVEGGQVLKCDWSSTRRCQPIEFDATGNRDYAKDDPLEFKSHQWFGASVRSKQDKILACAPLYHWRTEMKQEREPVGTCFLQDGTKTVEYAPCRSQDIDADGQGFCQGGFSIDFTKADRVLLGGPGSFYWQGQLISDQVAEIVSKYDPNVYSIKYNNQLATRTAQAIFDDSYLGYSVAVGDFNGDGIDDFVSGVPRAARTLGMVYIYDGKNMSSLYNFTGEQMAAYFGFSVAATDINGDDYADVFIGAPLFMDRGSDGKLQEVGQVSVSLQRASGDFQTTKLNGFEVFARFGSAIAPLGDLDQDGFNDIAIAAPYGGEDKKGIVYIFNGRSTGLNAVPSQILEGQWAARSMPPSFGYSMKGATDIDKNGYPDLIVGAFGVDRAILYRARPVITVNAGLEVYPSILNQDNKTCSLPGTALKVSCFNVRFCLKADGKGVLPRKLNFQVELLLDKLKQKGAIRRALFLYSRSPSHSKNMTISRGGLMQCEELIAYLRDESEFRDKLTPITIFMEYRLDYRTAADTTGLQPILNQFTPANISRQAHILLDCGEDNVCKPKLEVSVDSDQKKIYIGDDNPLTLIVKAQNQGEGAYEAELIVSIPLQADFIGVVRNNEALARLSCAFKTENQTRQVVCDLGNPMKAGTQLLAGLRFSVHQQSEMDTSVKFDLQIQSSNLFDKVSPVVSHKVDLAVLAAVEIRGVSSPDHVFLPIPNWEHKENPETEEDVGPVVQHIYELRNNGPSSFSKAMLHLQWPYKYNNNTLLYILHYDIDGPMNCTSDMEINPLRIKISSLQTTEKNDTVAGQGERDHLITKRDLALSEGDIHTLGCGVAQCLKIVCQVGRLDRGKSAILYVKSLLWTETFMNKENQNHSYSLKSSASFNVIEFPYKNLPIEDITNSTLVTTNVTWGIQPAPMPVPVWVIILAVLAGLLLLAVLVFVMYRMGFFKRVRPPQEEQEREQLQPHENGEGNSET", "assay": "cell-based or functional assay"}, "rat CTHRC1 [3]": {"molecular_target": "T1, rat CTHRC1 (rat, UniProt Q8CG08 33-245, limits assumed)", "T1 sequence (Q8CG08 33-245 limits assumed)": "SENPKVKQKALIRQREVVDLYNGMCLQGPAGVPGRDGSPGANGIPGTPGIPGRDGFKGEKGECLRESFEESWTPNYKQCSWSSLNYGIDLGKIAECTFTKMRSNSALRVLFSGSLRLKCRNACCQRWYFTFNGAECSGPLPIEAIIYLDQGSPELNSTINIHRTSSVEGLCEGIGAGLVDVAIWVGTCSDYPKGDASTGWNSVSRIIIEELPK", "assay": "binding EC50 on rat CTHRC1 (assay not named)"}, "mouse CTHRC1 [4]": {"molecular_target": "T2, mouse CTHRC1 (mouse, UniProt Q9D1D6 33-245, limits assumed)", "T2 construct": "also called muCTHRC1", "T2 sequence (Q9D1D6 33-245 limits assumed)": "as the sequence (Q8CG08 33-245 limits assumed) above", "assay": "binding EC50 on muCTHRC1 (assay not named)"}, "[5]": {"molecular_target": "recombinant human CTHRC1 (Collagen Triple Helix Repeat Containing 1) (human) (UniProt Q96CG8)", "sequence (Q96CG8 31-243)": "as the sequence (Q8CG08 33-245 limits assumed) above, with N3I, V6G, L11Q, I12L, L155M counted along it", "assay": "binding EC50 on huCTHRC1 (assay not named)"}, "[6]": {"molecular_target": "recombinant human CTHRC1 (Collagen Triple Helix Repeat Containing 1) (human) (UniProt Q96CG8)", "assay": "cell-based or functional assay"}, "rat CTHRC1 [7]": {"molecular_target": "T1, rat CTHRC1", "assay": "assay not named (Table 2 EC50 columns show n/a)"}, "mouse CTHRC1 [8]": {"molecular_target": "T2, mouse CTHRC1", "assay": "assay not named (Table 2 EC50 columns show n/a)"}},
  "data": [
    {"molecule": "recombinant human CTHRC1 (Collagen Triple Helix Repeat Containing 1) (from UniProt Q96CG8 31-243)", "values": [
      {"measurement": "cell adhesion of ovarian cancer cells to CTHRC1 after 1 hour with 100 nM integrin β1 antibody", "setting": "[1]", "result": 2, "unit": "fold"},
      {"measurement": "cell adhesion of ovarian cancer cells to CTHRC1 after 1 hour with a combination of integrin β1 antibody and integrin αV antibody", "setting": "[1]", "result": 2, "unit": "fold"},
      {"measurement": "decrease in cell adhesion of ovarian cancer cells to CTHRC1 after 1 hour with 100 nM integrin β1 antibody", "setting": "[1]", "result": 75, "unit": "%"},
      {"measurement": "cell adhesion of ovarian cancer cells to CTHRC1 after 1 hour with 100 nM integrin αV antibody", "setting": "[2]", "result": 2, "unit": "fold"},
      {"measurement": "cell adhesion of ovarian cancer cells to CTHRC1 after 1 hour with a combination of integrin β1 antibody and integrin αV antibody", "setting": "[2]", "result": 2, "unit": "fold"},
      {"measurement": "decrease in cell adhesion of ovarian cancer cells to CTHRC1 after 1 hour with 100 nM integrin αV antibody", "setting": "[2]", "result": 40, "unit": "%"}
    ]},
    {"molecule": "CTHRC1S-M14 (AB991) (antibody, V domains shown, Monoclonal antibody purified from a hybridoma of a humanized transgenic mouse; also called anti-CTHRC1 clone M14) VH: EVQVVESGGGLVQPGGSLRLSCAASRFTFSNYWMSWVRQAPGRGLEWVANIKQDGSEKYYVDSVKGRFTISRDNAKNSLYLQMNSLRAEDTAVYYCAREGGYCSDTRCFFYMDVWGKGTTVTVSS VL: DIQMTQSPSTLSASVGDRVTITCRASQSIISWLAWYQQKPGKAPKLLIYKASSLEGGVPSRFSGSGSGTDFTLTISSLQPDDFATYYCQQYNSYSRTFGQGTTVEIK", "values": [
      {"measurement": "EC50", "setting": "rat CTHRC1 [3]", "result": 50, "unit": "pM"},
      {"measurement": "EC50", "setting": "mouse CTHRC1 [4]", "result": 940, "unit": "pM"},
      {"measurement": "EC50", "setting": "[5]", "result": 50, "unit": "pM"}
    ]},
    {"molecule": "CTHRC1S-M5 (AB987) (antibody, V domains shown, Monoclonal antibody purified from a hybridoma of a humanized transgenic mouse immunized with rhCTHRC1; also called CTHRCIS-M5; anti-CTHRC1 clone M5) VH: EVQLVESGGGLVTPGGSLRLSCAASGFTFSTYSMNWVRQAPGKGLEWVSSISGSSGHIYYADSVRGRFTISRDNAKNSLYLQMNSLRAEDTAVYYCASMHYYYYLDVWGKGTTVTVSS VL: QAVVTQESALTTSPGETVTLTCRSSTGTVTTSNYVTWVQEKPDHLFTGLIGATNNRAPGVPARFSGSLIGDKAALTITGAQTEDEAIYFCALWYSNHWVFGGGTKLTVL", "values": [
      {"measurement": "blocking of cell adhesion to CTHRC1 (cell adhesion assay)", "setting": "[6]", "result": "> 50", "unit": "%"},
      {"measurement": "EC50", "setting": "rat CTHRC1 [3]", "result": 1730, "unit": "pM"},
      {"measurement": "EC50", "setting": "mouse CTHRC1 [4]", "result": 260, "unit": "pM"},
      {"measurement": "EC50", "setting": "[5]", "result": 1850, "unit": "pM"}
    ]},
    {"molecule": "CTHRC1S-M11 (AB989) (antibody, V domains shown, Monoclonal antibody purified from a hybridoma of a humanized transgenic mouse; also called CTHRCIS-M11) VH: QVTLRESGPALVKPTQTLTLTCTFSGFSLSTNVMCVSWIRQPPGKALEWLALIDWDDDKYYSTSLKTRLTISKDTSKNQVVLTMTNMDPVDTATYYCARTGITGTHYYYYYMDVWGKGTTVTVSS VL: AIQMTQSPSSLSASVGDRVTITCRASQGIRNDLGWYQQKPGKAPKLLIYAASSLQSGVPSRFSGSGFGTDFTLTISSLQPEDFATYYCLQDYNYPWTFGQGTKVEIK", "values": [
      {"measurement": "blocking of cell adhesion to CTHRC1 (cell adhesion assay)", "setting": "[6]", "result": "> 50", "unit": "%"},
      {"measurement": "binding result", "setting": "rat CTHRC1 [7]", "result": "no binding"},
      {"measurement": "binding result", "setting": "mouse CTHRC1 [8]", "result": "no binding"},
      {"measurement": "EC50", "setting": "[5]", "result": 9760, "unit": "pM"}
    ]}
  ]
}
